Test results reported in the Human Domainome abundance scans (Beltran et al. 2025).
± gives the uncertainty stated by the source.

B1: FERM and PDZ domain-containing protein 4, residues 75 to 154; numbered along this chain, Q14CM0 (parent)
chain: APRKVEMRRDPVLGFGFVAGSEKPVVVRSVTPGGPSEGKLIPGDQIVMINDEPVSAAPRERVIDLVRSCKESILLTVIQP

Variants of: B1
Assay: abundance fitness (aPCA) (normalised: wild type 0, dead -1); higher = more abundant; growth selection in yeast, the domain comes from the species named
Conditions: Homo sapiens

Variant | abundance fitness
D10V | -0.214 ± 0.03
D10W | -0.422 ± 0.041
D10Y | -0.521 ± 0.058
P11A | -0.137 ± 0.028
P11C | -0.243 ± 0.033
P11D | -0.063 ± 0.048
P11E | -0.117 ± 0.031
P11F | -0.329 ± 0.046
P11G | -0.128 ± 0.021
P11H | -0.208 ± 0.054
P11I | -0.162 ± 0.042
P11K | -0.09 ± 0.031
P11L | -0.143 ± 0.023
P11M | -0.148 ± 0.031
P11N | -0.157 ± 0.043
P11Q | -0.131 ± 0.03
P11R | -0.123 ± 0.021
P11T | -0.111 ± 0.029
P11V | -0.247 ± 0.026
P11W | -0.405 ± 0.029
P11Y | -0.391 ± 0.085
V12C | -0.056 ± 0.04
V12D | 0.004 ± 0.046
V12E | -0.068 ± 0.036

Variant | abundance fitness
V12F | -0.089 ± 0.054
V12G | -0.048 ± 0.025
V12H | 0.043 ± 0.051
V12I | -0.055 ± 0.04
V12K | 0.004 ± 0.04
V12L | -0.001 ± 0.029
V12M | 0.007 ± 0.041
V12N | 0.025 ± 0.056
V12P | -0.545 ± 0.046
V12Q | 0 ± 0.037
V12R | -0.023 ± 0.027
V12S | -0.006 ± 0.031
V12T | 0.049 ± 0.039
V12W | -0.14 ± 0.038
V12Y | -0.065 ± 0.049
L13F | -0.046 ± 0.17
L13S | -0.013 ± 0.094
L13V | -0.003 ± 0.094
L13W | -0.046 ± 0.084
G14C | -0.502 ± 0.042
G14D | -0.025 ± 0.036
G14F | -0.822 ± 0.077
G14H | -0.303 ± 0.043
G14I | -0.719 ± 0.062

Variant | abundance fitness
G14K | -0.247 ± 0.04
G14L | -0.677 ± 0.035
G14M | -0.404 ± 0.04
G14N | -0.131 ± 0.044
G14P | -0.963 ± 0.073
G14R | -0.496 ± 0.028
G14S | -0.273 ± 0.028
G14T | -0.718 ± 0.044
G14V | -0.779 ± 0.039
G14W | -1 ± 0.071
G14Y | -0.761 ± 0.068
F15A | -0.729 ± 0.034
F15C | -0.758 ± 0.061
F15D | -0.781 ± 0.063
F15E | -0.805 ± 0.045
F15H | -0.828 ± 0.089
F15I | -0.702 ± 0.087
F15K | -0.905 ± 0.067
F15L | -0.26 ± 0.025
F15M | -0.392 ± 0.04
F15N | -0.848 ± 0.094
F15P | -0.857 ± 0.047
F15Q | -0.776 ± 0.048
F15R | -0.911 ± 0.036

Variant | abundance fitness
F15S | -0.777 ± 0.035
F15T | -0.819 ± 0.053
F15V | -0.815 ± 0.037
F15W | -0.057 ± 0.029
F15Y | -0.039 ± 0.043
G16A | -0.499 ± 0.027
G16C | -0.956 ± 0.074
G16D | -0.783 ± 0.057
G16F | -1.03 ± 0.13
G16H | -1.01 ± 0.14
G16I | -1.32 ± 0.2
G16K | -0.911 ± 0.066
G16L | -1.15 ± 0.066
G16N | -0.677 ± 0.099
G16P | -0.977 ± 0.063
G16Q | -0.889 ± 0.066
G16R | -1.04 ± 0.042
G16S | -0.813 ± 0.039
G16T | -0.946 ± 0.061
G16V | -1.08 ± 0.049
G16Y | -1.3 ± 0.27
F17A | -0.857 ± 0.041
F17C | -0.637 ± 0.044
F17D | -0.921 ± 0.077

Variant | abundance fitness
F17E | -0.832 ± 0.043
F17G | -0.897 ± 0.032
F17H | -0.806 ± 0.074
F17I | -0.322 ± 0.043
F17K | -0.842 ± 0.051
F17L | -0.294 ± 0.026
F17M | -0.381 ± 0.035
F17N | -0.923 ± 0.098
F17P | -0.916 ± 0.066
F17T | -0.887 ± 0.054
F17V | -0.704 ± 0.031
F17W | -0.218 ± 0.026
F17Y | -0.395 ± 0.052
V18A | -0.058 ± 0.023
V18C | -0.041 ± 0.032
V18D | -0.055 ± 0.035
V18E | -0.019 ± 0.025
V18F | -0.255 ± 0.044
V18G | -0.112 ± 0.02
V18H | -0.048 ± 0.048
V18I | -0.01 ± 0.038
V18K | -0.118 ± 0.032
V18L | -0.142 ± 0.025
V18M | -0.075 ± 0.034

Variant | abundance fitness
V18N | -0.104 ± 0.049
V18P | -1.03 ± 0.073
V18S | -0.095 ± 0.027
V18T | -0.092 ± 0.028
V18W | -0.38 ± 0.03
V18Y | -0.078 ± 0.046
A19C | -0.001 ± 0.037
A19E | -0.075 ± 0.028
A19F | -0.016 ± 0.04
A19G | -0.074 ± 0.021
A19H | -0.03 ± 0.046
A19I | 0.021 ± 0.048
A19K | -0.594 ± 0.045
A19L | 0.045 ± 0.024
A19M | 0.003 ± 0.033
A19N | -0.286 ± 0.048
A19P | -0.029 ± 0.029
A19Q | -0.084 ± 0.033
A19R | -0.83 ± 0.034
A19S | -0.066 ± 0.026
A19T | -0.005 ± 0.03
A19V | 0.003 ± 0.024
A19W | -0.045 ± 0.03
A19Y | -0.081 ± 0.043

Variant | abundance fitness
G20C | -0.094 ± 0.033
G20D | 0.017 ± 0.032
G20E | 0.01 ± 0.027
G20F | -0.155 ± 0.045
G20H | -0.029 ± 0.047
G20I | -0.051 ± 0.05
G20K | -0.093 ± 0.032
G20L | -0.116 ± 0.025
G20N | -0.089 ± 0.047
G20Q | -0.03 ± 0.033
G20S | -0.002 ± 0.025
G20T | -0.061 ± 0.029
G20W | -0.105 ± 0.026
G20Y | -0.067 ± 0.04
S21A | 0.005 ± 0.025
S21C | -0.047 ± 0.033
S21D | -0.003 ± 0.036
S21F | -0.021 ± 0.037
S21G | 0.043 ± 0.022
S21H | -0.028 ± 0.048
S21I | -0.234 ± 0.059
S21K | -0.009 ± 0.033
S21L | -0.049 ± 0.026
